Reference: the supplement of paper PMC10567573

B1: ZNF232 (parent)
chain: GKAYGWCSELIRHRRVHARKEPSH

Variants of: B1
Assay: protein stability index of a GFP-peptide fusion (GPS, HEK-293T) (PSI 1-6); higher = more stable
Details: c terminus: a fixed tail appended
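Note: lentivirally expressed fusions sorted by FACS into six bins by GFP to DsRed ratio, PSI derived from sequencing read proportions per bin multiplied by bin number.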

| Variant | protein stability index |
| --- | --- |
| GKAYGWCYELIRHRRVHARKEPSH | 2.34 |
| GKAYGWCEELIRHRRVHARKEPSH | 3.2 |
| GKAYGWCDELIRHRRVHARKEPSH | 3.22 |
| GKAYGWCPELIRHRRVHARKEPSH | 3.21 |
| GKAYGWCMELIRHRRVHARKEPSH | 1.94 |
| GKAYGWCNELIRHRRVHARKEPSH | 3.21 |
| GKAYGWCVELIRHRRVHARKEPSH | 2.02 |
| GKAYGWCIELIRHRRVHARKEPSH | 1.57 |
| GKAYGWCSEIIRHRRVHARKEPSH | 2.84 |
| GKAYGWCSEHIRHRRVHARKEPSH | 3.64 |
| GKAYGWCSEDIRHRRVHARKEPSH | 3.5 |
| GKAYGWCSEKIRHRRVHARKEPSH | 3.08 |
| GKAYGWCSEAIRHRRVHARKEPSH | 3.08 |
| GKAYGWCSEEIRHRRVHARKEPSH | 2.84 |
| GKAYGWCSEMIRHRRVHARKEPSH | 3.43 |
| GKAYGWCSEGIRHRRVHARKEPSH | 3.55 |
| GKAYGWCSEFIRHRRVHARKEPSH | 2.6 |
| GKAYGWCSECIRHRRVHARKEPSH | 2.15 |
| GKAYCWCSELIRHRRVHARKEPSH | 1.59 |
| GKAYPWCSELIRHRRVHARKEPSH | 3.25 |
| GKAYYWCSELIRHRRVHARKEPSH | 2.13 |
| GKAYFWCSELIRHRRVHARKEPSH | 2.5 |
| GKAYEWCSELIRHRRVHARKEPSH | 2.89 |
| GKAYLWCSELIRHRRVHARKEPSH | 1.72 |

| Variant | protein stability index |
| --- | --- |
| GKAYRWCSELIRHRRVHARKEPSH | 2.9 |
| GKAYSWCSELIRHRRVHARKEPSH | 2.99 |
| GKAYAWCSELIRHRRVHARKEPSH | 3.55 |
| GKAYNWCSELIRHRRVHARKEPSH | 3.56 |
| GKAYIWCSELIRHRRVHARKEPSH | 2.29 |
| GKAYDWCSELIRHRRVHARKEPSH | 2.92 |
| GKAYKWCSELIRHRRVHARKEPSH | 2.95 |
| GKAYMWCSELIRHRRVHARKEPSH | 2.94 |
| GKAYHWCSELIRHRRVHARKEPSH | 3.04 |
| GKAYVWCSELIRHRRVHARKEPSH | 2.22 |
| GKAYQWCSELIRHRRVHARKEPSH | 3.09 |
| GKAYTWCSELIRHRRVHARKEPSH | 2.79 |
| GKAYWWCSELIRHRRVHARKEPSH | 2.14 |
| GKAYGWTSELIRHRRVHARKEPSH | 3.26 |
| GKAYGWPSELIRHRRVHARKEPSH | 3.61 |
| GKAYGWYSELIRHRRVHARKEPSH | 2.57 |
| GKAYGWNSELIRHRRVHARKEPSH | 4.19 |
| GKAYGWSSELIRHRRVHARKEPSH | 3.82 |
| GKAYGWFSELIRHRRVHARKEPSH | 2.42 |
| GKAYGWASELIRHRRVHARKEPSH | 3.3 |
| GKAYGWDSELIRHRRVHARKEPSH | 3.42 |
| GKAYGWESELIRHRRVHARKEPSH | 3.67 |
| GKAYGWWSELIRHRRVHARKEPSH | 3.05 |
| GKAYGWLSELIRHRRVHARKEPSH | 2.34 |

| Variant | protein stability index |
| --- | --- |
| GKAYGWQSELIRHRRVHARKEPSH | 3.18 |
| GKAYGWGSELIRHRRVHARKEPSH | 3.89 |
| GKAYGWKSELIRHRRVHARKEPSH | 3.54 |
| GKAYGWVSELIRHRRVHARKEPSH | 2.06 |
| GKAYGWRSELIRHRRVHARKEPSH | 3.59 |
| GKAYGWISELIRHRRVHARKEPSH | 2.17 |
| GKAYGWMSELIRHRRVHARKEPSH | 2.62 |
| GKAYGWHSELIRHRRVHARKEPSH | 3.37 |
| GKSYGWCSELIRHRRVHARKEPSH | 3.46 |
| GKFYGWCSELIRHRRVHARKEPSH | 2.73 |
| GKDYGWCSELIRHRRVHARKEPSH | 3.39 |
| GKRYGWCSELIRHRRVHARKEPSH | 2.92 |
| GKTYGWCSELIRHRRVHARKEPSH | 3.02 |
| GKVYGWCSELIRHRRVHARKEPSH | 2.97 |
| GKMYGWCSELIRHRRVHARKEPSH | 2.77 |
| GKEYGWCSELIRHRRVHARKEPSH | 3.04 |
| GKYYGWCSELIRHRRVHARKEPSH | 2.53 |
| GKPYGWCSELIRHRRVHARKEPSH | 2.81 |
| GKWYGWCSELIRHRRVHARKEPSH | 2.48 |
| GKCYGWCSELIRHRRVHARKEPSH | 2.89 |
| GKGYGWCSELIRHRRVHARKEPSH | 3 |
| GKKYGWCSELIRHRRVHARKEPSH | 3.1 |
| GKHYGWCSELIRHRRVHARKEPSH | 2.69 |
| GKLYGWCSELIRHRRVHARKEPSH | 2.29 |

| Variant | protein stability index |
| --- | --- |
| GKQYGWCSELIRHRRVHARKEPSH | 2.95 |
| GKNYGWCSELIRHRRVHARKEPSH | 3.12 |
| GKIYGWCSELIRHRRVHARKEPSH | 2.35 |
| YKAYGWCSELIRHRRVHARKEPSH | 2.37 |
| DKAYGWCSELIRHRRVHARKEPSH | 3.43 |
| CKAYGWCSELIRHRRVHARKEPSH | 2.73 |
| AKAYGWCSELIRHRRVHARKEPSH | 2.89 |
| SKAYGWCSELIRHRRVHARKEPSH | 3.08 |
| FKAYGWCSELIRHRRVHARKEPSH | 2.79 |
| NKAYGWCSELIRHRRVHARKEPSH | 3.14 |
| VKAYGWCSELIRHRRVHARKEPSH | 2.45 |
| RKAYGWCSELIRHRRVHARKEPSH | 2.87 |
| IKAYGWCSELIRHRRVHARKEPSH | 2.72 |
| MKAYGWCSELIRHRRVHARKEPSH | 2.55 |
| WKAYGWCSELIRHRRVHARKEPSH | 1.97 |
| EKAYGWCSELIRHRRVHARKEPSH | 3.39 |
| HKAYGWCSELIRHRRVHARKEPSH | 2.75 |
| TKAYGWCSELIRHRRVHARKEPSH | 3.35 |
| PKAYGWCSELIRHRRVHARKEPSH | 3.44 |
| KKAYGWCSELIRHRRVHARKEPSH | 2.75 |
| LKAYGWCSELIRHRRVHARKEPSH | 2.85 |
| QKAYGWCSELIRHRRVHARKEPSH | 3.28 |
